B1: Signal transducing adapter molecule 1 (Homo sapiens), Q92783 (parent)
chain: MPLFATNPFDQDVEKATSEMNTAEDWGLILDICDKVGQSRTGPKDCLRSIMRRVNHKDPHVAMQALTLLGACVSNCGKIFHLEVCSRDFASEVSNVLNKGHPKVCEKLKALMVEWTDEFKNDPQLSLISAMIKNLKEQGVTFPAIGSQAAEQAKASPALVAKDPGTVANKKEEEDLAKAIELSLKEQRQQSTTLSTLYPSTSSLLTNHQHEGRKVRAIYDFEAAEDNELTFKAGEIITVLDDSDPNWWKGETHQGIGLFPSNFVTADLTAEPEMIKTEKKTVQFSDDVQVETIEPEPEPAFIDEDKMDQLLQMLQSTDPSDDQPDLPELLHLEAMCHQMGPLIDEKLEDIDRKHSELSELNVKVMEALSLYTKLMNEDPMYSMYAKLQNQPYYMQSSGVSGSQVYAGPPPSGAYLVAGNAQMSHLQSYSLPPEQLSSLSQAVVPPSANPALPSQQTQAAYPNTMVSSVQGNTYPSQAPVYSPPPAATAAAATADVTLYQNAGPNMPQVPNYNLTSSTLPQPGGSQQPPQPQQPYSQKALL
B2: Class E vacuolar protein-sorting machinery protein HSE1 (Saccharomyces cerevisiae), P38753 (parent)
chain: MSSSAIKIRNALLKATDPKLRSDNWQYILDVCDLVKEDPEDNGQEVMSLIEKRLEQQDANVILRTLSLTVSLAENCGSRLRQEISSKNFTSLLYALIESHSVHITLKKAVTDVVKQLSDSFKDDPSLRAMGDLYDKIKRKAPYLVQPNVPEKHNMSTQADNSDDEELQKALKMSLFEYEKQKKLQEQEKESAEVLPQQQQQHQQQNQAPAHKIPAQTVVRRVRALYDLTTNEPDELSFRKGDVITVLEQVYRDWWKGALRGNMGIFPLNYVTPIVEPSKEEIEKEKNKEAIVFSQKTTIDQLHNSLNAASKTGNSNEVLQDPHIGDMYGSVTPLRPQVTRMLGKYAKEKEDMLSLRQVLANAERSYNQLMDRAANAHISPPVPGPALYAGMTHANNTPVMPPQRQSYQSNEYSPYPSNLPIQHPTNSANNTPQYGYDLGYSVVSQPPPGYEQ
B3: Vacuolar protein sorting-associated protein 27 (Saccharomyces cerevisiae), P40343 (parent)
chain: MSVSTPSELDALIEQATSESIPNGDLDLPIALEISDVLRSRRVNPKDSMRCIKKRILNTADNPNTQLSSWKLTNICVKNGGTPFIKEICSREFMDTMEHVILREDSNEELSELVKTILYELYVAFKNDSQLNYVAKVYDKLISRGIKFPEKLTLSNSPTAMFDSKTPADWIDSDACMICSKKFSLLNRKHHCRSCGGVFCQEHSSNSIPLPDLGIYEPVRVCDSCFEDYDLKRHDDSKKSKKHRHKRKKDRDYSTPEDEEELIRKAIELSLKESRNSASSEPIVPVVESKNEVKRQEIEEEEDPDLKAAIQESLREAEEAKLRSERQKASRQMQPQQPSPQPQPIHSVDLSDEEKDSIYMFASLVEKMKSRPLNEILEDSKLQNLAQRVFASKARLNYALNDKAQKYNTLIEMNGKISEIMNIYDRLLEQQLQSINLSQQYTLPQVPSDPYNYLTENVQNPAESYQTPPLQQLSSHQYKPQQDVSRQQSVKANSSPTTNIDHLKTIDVTPHAQQKPQSHVELAPSDPPYPKEEAEDEGTQAVQDEESSTQESRERPYPVETENGETSINKRPQGITRYDFPTVPARKFVQPESTVPLPASSSEIPIKEERPPSPQEELLIEL

Variants of: B1
Conditions: with ubb_bovin UBB

Row | Variant | effect of a mutation on the interaction
1 | W26A | disrupting interaction

Variants of: B1
Conditions: with ubb_bovin UBB
Remark: another data set of the same source

Row | Variant | effect of a mutation on the interaction
2 | D31Q | increasing interaction

Variants of: B1
Conditions: with ubb_bovin UBB
Remark: another data set of the same source

Row | Variant | effect of a mutation on the interaction
3 | G27E | decreasing interaction

Variants of: B1
Conditions: with ubb_bovin UBB
Remark: another data set of the same source

Row | Variant | effect of a mutation on the interaction
4 | L30D | disrupting interaction

Variants of: B2
Conditions: with ubb_bovin UBB

Row | Variant | effect of a mutation on the interaction
5 | MSSSAIKIRNALLKATDPKLRSDNWQYILDVCDLVKEDPEDNGQEVMSLIEKRLEQQDANVILRTLSLTVSLAENCGSRLRQEISSKNFTSLLYALIESHSVHITLKKAVTDVVKQLSDSFKDDPSLRAMGDLYDKIKRKAPYLVQPNVPEKHNMSTQADNSDDEELQKQLKMSLFEYEKQKKLQEQEKESAEVLPQQQQQHQQQNQAPAHKIPAQTVVRRVRALYDLTTNEPDELSFRKGDVITVLEQVYRDWWKGALRGNMGIFPLNYVTPIVEPSKEEIEKEKNKEAIVFSQKTTIDQLHNSLNAASKTGNSNEVLQDPHIGDMYGSVTPLRPQVTRMLGKYAKEKEDMLSLRQVLANAERSYNQLMDRAANAHISPPVPGPALYAGMTHANNTPVMPPQRQSYQSNEYSPYPSNLPIQHPTNSANNTPQYGYDLGYSVVSQPPPGYEQ [A170Q] | disrupting interaction
6 | MSSSAIKIRNALLKATDPKLRSDNWQYILDVCDLVKEDPEDNGQEVMSLIEKRLEQQDANVILRTLSLTVSLAENCGSRLRQEISSKNFTSLLYALIESHSVHITLKKAVTDVVKQLSDSFKDDPSLRAMGDLYDKIKRKAPYLVQPNVPEKHNMSTQADNSDDEELQKALKMDLFEYEKQKKLQEQEKESAEVLPQQQQQHQQQNQAPAHKIPAQTVVRRVRALYDLTTNEPDELSFRKGDVITVLEQVYRDWWKGALRGNMGIFPLNYVTPIVEPSKEEIEKEKNKEAIVFSQKTTIDQLHNSLNAASKTGNSNEVLQDPHIGDMYGSVTPLRPQVTRMLGKYAKEKEDMLSLRQVLANAERSYNQLMDRAANAHISPPVPGPALYAGMTHANNTPVMPPQRQSYQSNEYSPYPSNLPIQHPTNSANNTPQYGYDLGYSVVSQPPPGYEQ [S174D] | disrupting interaction

Variants of: B3
Conditions: with ubb_bovin UBB

Row | Variant | effect of a mutation on the interaction
7 | S270D | disrupting interaction
8 | A266Q | disrupting interaction

— IntAct's records for PubMed 20150893
